Numbering of substitutions follows the chain as printed. Square brackets hold non-standard residues; d marks the D form. Primed or numbered codes have the meaning given here. Ends that are not written are not given here. FITC′ = fluorescein isothiocyanate label; pT = C[C@@H](OP(=O)(O)O)[C@H](N)C(=O)O
What was measured:
Test in all cases: fluorescence polarisation; 100 nM FITC-labeled phosphopeptide with increasing hsNbs1(384); room temperature, 15 min incubation; 25 mM HEPES pH 7.4, 150 mM NaCl, 1 mM EDTA, 2 mM DTT, 0.05% Tween20, 0.1% BSA; one-site model
Conditions in all cases: both partners purified
hsNbs1(384) R43A = target: T1, hsNbs1(384) R43A (human, UniProt O60934 1-384, R43A)
T1 construct: source: E. coli BL21(DE3) pLacI, purified as the wild type
T1 sequence (looked up): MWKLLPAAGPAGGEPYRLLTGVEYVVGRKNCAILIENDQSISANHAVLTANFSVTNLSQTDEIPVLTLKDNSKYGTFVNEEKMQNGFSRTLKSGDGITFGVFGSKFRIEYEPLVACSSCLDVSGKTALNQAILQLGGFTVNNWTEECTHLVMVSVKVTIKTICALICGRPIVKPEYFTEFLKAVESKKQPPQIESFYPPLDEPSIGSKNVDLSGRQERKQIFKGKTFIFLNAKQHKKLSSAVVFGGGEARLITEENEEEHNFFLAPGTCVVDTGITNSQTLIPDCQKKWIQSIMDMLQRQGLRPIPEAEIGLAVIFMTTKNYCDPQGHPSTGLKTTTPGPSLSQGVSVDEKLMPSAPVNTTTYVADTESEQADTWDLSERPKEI

hsNbs1(384) K160A = target: T2, hsNbs1(384) K160A (human, UniProt O60934 1-384, K160A)
T2 construct: source: E. coli BL21(DE3) pLacI, purified as the wild type
T2 sequence (looked up): T1 sequence (looked up) with A43R, K160A

[1] = target: T3, hsNbs1(384), the N-terminal 384 residues of homo sapiens Nbs1 containing the FHA-BRCT1-BRCT2 domains (human, UniProt O60934 1-384)
T3 construct: gene optimised for E. coli, cloned into pET30a (NdeI/HindIII); also called wt; source: E. coli BL21(DE3) pLacI, purified (Ni-NTA, HiTrap Q, Superdex 75)
T3 sequence (looked up): T1 sequence (looked up) with A43R

hsNbs1(384) R28A = target: T4, hsNbs1(384) R28A (human, UniProt O60934 1-384, R28A)
T4 construct: source: E. coli BL21(DE3) pLacI, purified as the wild type
T4 sequence (looked up): T1 sequence (looked up) with R28A, A43R

hsNbs1(384) K125A = target: T5, hsNbs1(384) K125A (human, UniProt O60934 1-384, K125A)
T5 construct: source: E. coli BL21(DE3) pLacI, purified as the wild type
T5 sequence (looked up): T1 sequence (looked up) with A43R, K125A

## {FITC′}-GGRYIPPN[pT]PENFWEVGFPEEQ [hsCtIP phosphopeptide R841YIPPNpTPENFWEVGFPEEQ860 with N-terminal FITC-Gly-Gly]
hsNbs1(384) R43A
  Kd: 29.2 µM
hsNbs1(384) K160A
  Kd: 133 µM
[1]
  Kd: 20 µM
hsNbs1(384) R28A
  Kd: 35.9 µM
hsNbs1(384) K125A
  Kd: 39.6 µM
